Measurements taken from article PMC10611751 (2023).
Like-named read-outs stand apart in the source and are kept apart here.

B1: Ankyrin-G 24 ANK repeats (residues 38-855) (domain or fragment)
chain: KSDANASYLRAARAGHLEKALDYIKNGVDVNICNQNGLNALHLASKEGHVEVVSELLQREANVDAATKKGNTALHIASLAGQAEVVKVLVTNGANVNAQSQNGFTPLYMAAQENHLEVVRFLLDNGASQSLATEDGFTPLAVALQQGHDQVVSLLLENDTKGKVRLPALHIAARKDDTKAAALLLQNDTNADIESKMVVNRATESGFTPLHIAAHYGNINVATLLLNRAAAVDFTARNDITPLHVASKRGNANMVKLLLDRGAKIDAKTRDGLTPLHCGARSGHEQVVEMLLDRAAPILSKTKNGLSPLHMATQGDHLNCVQLLLQHNVPVDDVTNDYLTALHVAAHCGHYKVAKVLLDKKANPNAKALNGFTPLHIACKKNRIRVMELLLKHGASIQAVTESGLTPIHVAAFMGHVNIVSQLMHHGASPNTTNVRGETALHMAARSGQAEVVRYLVQDGAQVEAKAKDDQTPLHISARLGKADIVQQLLQQGASPNAATTSGYTPLHLSAREGHEDVAAFLLDHGASLSITTKKGFTPLHVAAKYGKLEVASLLLQKSASPDAAGKSGLTPLHVAAHYDNQKVALLLLDQGASPHAAAKNGYTPLHIAAKKNQMDIATSLLEYGADANAVTRQGIASVHLAAQEGHVDMVSLLLSRNANVNLSNKSGLTPLHLAAQEDRVNVAEVLVNQGAHVDAQTKMGYTPLHVGCHYGNIKIVNFLLQHSAKVNAKTKNGYTPLHQAAQQGHTHIINVLLQNNASPNELTVNGNTALAIARRLGYISVVDTLKVVTEEIMTTTTITEKHKMNVPETMNEVLDMS
B2: E-cadherin 776-884–AnkG R1-24 complex (complex)
chain 1: not shown
chain 2: B1 chain
B3: E-cadherin CTD–AnkG R1-24 complex (complex)
chain 1: not shown
chain 2: B1 chain
B4: E-cadherin C-terminal domain (residues 734-884) (domain or fragment)
chain: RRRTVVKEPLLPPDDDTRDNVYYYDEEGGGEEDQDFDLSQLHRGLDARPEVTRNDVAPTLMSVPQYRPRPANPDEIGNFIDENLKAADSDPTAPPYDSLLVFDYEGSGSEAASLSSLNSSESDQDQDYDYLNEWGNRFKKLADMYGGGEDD

Assays:
Experiment in all cases: ITC
[1] = biological target: E-cadherin CTD site-1, 3 to A (mouse, UniProt P09803 734-884, Y755A | Y756A | Y757A | Y861A | Y863A | W867A)
[2] = biological target: E-cadherin CTD site-3 to A (mouse, UniProt P09803 734-884, Y861A | Y863A | W867A)
[3] = biological target: E-cadherin CTD site-1 to A (mouse, UniProt P09803 734-884, Y755A | Y756A | Y757A)
[4] = biological target: E-cadherin CTD site-2 to A (mouse, UniProt P09803 734-884, Y829A | Y837A)
[5] = biological target: E-cadherin CTD site-2, 3 to A (mouse, UniProt P09803 734-884, Y829A | Y837A | Y861A | Y863A | W867A)
[6] = biological target: E-cadherin CTD site-1, 2 to A (mouse, UniProt P09803 734-884, Y755A | Y756A | Y757A | Y829A | Y837A)
[7] = biological target: T1, full-length β-catenin 1-781 (mouse, UniProt Q02248 1-781)
T1 chain: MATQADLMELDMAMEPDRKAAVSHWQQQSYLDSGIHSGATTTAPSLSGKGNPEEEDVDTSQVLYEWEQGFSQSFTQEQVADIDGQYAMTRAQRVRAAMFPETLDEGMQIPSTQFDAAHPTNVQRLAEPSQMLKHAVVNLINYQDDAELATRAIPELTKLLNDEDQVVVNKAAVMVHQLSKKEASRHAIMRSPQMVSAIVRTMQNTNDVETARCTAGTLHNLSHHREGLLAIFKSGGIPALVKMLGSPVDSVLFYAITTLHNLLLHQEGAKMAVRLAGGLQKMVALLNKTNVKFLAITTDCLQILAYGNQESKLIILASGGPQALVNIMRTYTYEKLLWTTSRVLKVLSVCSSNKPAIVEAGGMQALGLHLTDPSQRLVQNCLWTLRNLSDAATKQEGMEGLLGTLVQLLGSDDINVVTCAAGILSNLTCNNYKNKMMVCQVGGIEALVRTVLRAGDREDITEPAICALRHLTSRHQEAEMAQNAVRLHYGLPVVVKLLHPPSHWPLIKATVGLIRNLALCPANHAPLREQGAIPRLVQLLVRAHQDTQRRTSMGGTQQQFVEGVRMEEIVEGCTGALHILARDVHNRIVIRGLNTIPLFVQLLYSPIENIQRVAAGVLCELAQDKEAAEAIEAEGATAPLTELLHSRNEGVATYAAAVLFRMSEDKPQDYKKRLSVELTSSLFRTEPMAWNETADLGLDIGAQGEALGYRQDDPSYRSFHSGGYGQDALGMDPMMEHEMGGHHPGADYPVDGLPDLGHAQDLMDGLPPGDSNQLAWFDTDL

[8] = biological target: T1, full-length β-catenin 1-781
[9] = biological target: T2, Ankyrin-G ANK repeats 8-14 (UniProt O70511 275-500)
T2 chain: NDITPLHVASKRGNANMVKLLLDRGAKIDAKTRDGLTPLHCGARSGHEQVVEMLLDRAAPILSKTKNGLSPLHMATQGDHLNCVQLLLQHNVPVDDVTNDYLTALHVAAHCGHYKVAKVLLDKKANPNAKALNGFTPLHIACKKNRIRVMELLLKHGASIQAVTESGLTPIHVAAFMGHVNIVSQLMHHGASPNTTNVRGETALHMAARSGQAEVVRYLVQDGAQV

AnkG R6-24 = biological target: T3, AnkG R6-24 (Rattus norvegicus)
T3 chain: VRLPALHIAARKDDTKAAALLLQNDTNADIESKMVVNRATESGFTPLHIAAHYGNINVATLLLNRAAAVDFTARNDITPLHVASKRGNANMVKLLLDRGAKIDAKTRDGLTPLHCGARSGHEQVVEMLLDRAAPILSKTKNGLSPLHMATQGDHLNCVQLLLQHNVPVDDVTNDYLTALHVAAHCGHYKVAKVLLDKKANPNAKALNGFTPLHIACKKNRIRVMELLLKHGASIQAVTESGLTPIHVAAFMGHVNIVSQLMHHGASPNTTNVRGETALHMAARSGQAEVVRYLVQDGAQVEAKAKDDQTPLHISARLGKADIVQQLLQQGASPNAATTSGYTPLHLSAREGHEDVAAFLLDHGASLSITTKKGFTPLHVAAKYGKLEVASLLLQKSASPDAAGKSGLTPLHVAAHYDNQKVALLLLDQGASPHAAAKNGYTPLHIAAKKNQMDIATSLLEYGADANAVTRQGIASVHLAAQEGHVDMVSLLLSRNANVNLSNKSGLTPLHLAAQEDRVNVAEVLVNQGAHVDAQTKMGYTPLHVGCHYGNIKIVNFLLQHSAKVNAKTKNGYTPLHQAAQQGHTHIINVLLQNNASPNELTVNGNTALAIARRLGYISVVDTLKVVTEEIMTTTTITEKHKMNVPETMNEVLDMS

p120 catenin 324-938 = biological target: T4, p120 catenin 324-938 (mouse, UniProt P30999 324-938)
T4 chain: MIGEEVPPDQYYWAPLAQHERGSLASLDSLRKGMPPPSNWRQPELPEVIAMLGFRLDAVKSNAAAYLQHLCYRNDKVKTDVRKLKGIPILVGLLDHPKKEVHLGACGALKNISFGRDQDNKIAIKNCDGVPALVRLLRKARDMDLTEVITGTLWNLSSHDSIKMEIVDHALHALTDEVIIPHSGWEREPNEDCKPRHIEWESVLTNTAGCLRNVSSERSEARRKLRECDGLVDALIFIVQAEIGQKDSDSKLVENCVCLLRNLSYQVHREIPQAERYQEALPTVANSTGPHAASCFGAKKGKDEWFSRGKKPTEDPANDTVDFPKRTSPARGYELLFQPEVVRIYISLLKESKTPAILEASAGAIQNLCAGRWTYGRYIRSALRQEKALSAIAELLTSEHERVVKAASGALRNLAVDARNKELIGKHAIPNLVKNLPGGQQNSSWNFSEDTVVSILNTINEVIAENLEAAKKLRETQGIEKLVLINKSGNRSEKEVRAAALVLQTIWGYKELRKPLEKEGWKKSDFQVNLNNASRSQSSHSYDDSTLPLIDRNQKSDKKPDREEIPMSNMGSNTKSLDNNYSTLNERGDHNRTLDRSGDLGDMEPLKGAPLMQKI

[10] = biological target: T1, full-length β-catenin 1-781
[11] = biological target: B1

Binder: B1
- Kd [1]: 4900 nM
- Kd [2]: 4200 nM
- Kd [3]: 2000 nM
- Kd [4]: 2900 nM
- Kd [5]: 3300 nM
- Kd [6]: 6300 nM

Binder: B2
- Kd [7]: 80 nM

Binder: B3
- Kd [8]: 98 nM

Binder: B4
- Kd [9]: 5000 nM
- Kd (AnkG R6-24): 2900 nM
- Kd (p120 catenin 324-938): 1700 nM
- Kd [10]: 36 nM
- Kd [11]: 2800 nM
